Results taken from article PMC3515450, “Mechanistic and Structural Understanding of Uncompetitive Inhibitors of Caspase-6” (PLoS ONE, 2012).
* marks the point of attachment. AMC = Cc1cc(=O)oc2cc(N*)ccc12; R110 = Rhodamine110 dye

Key:
caspase-3 = molecular target: T1, caspase-3 (Homo sapiens, UniProt P42574); test: Caspase-3 enzymatic assay with divalent R110 substrates; format: biochemical; settings: caspase-3
T1 construct: as the catalytic domain consisting of large p20 and small p10 subunits without prodomain; made in house
T1 sequence (P42574 29-175 limits assumed): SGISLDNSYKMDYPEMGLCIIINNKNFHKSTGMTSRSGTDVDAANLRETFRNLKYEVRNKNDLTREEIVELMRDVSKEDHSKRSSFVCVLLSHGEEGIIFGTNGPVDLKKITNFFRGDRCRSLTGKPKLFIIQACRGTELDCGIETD
T1 sequence (P42574 176-277 limits assumed): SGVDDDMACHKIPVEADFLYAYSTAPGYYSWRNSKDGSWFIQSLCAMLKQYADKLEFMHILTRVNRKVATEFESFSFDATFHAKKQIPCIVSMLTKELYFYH
Method: (§1) The in vitro enzymatic caspase assays utilize synthetic tetrapeptide substrates labeled with the fluorophores Rhodamine110 (R110) or 7-amino-4-methylcoumarin (AMC) at the P1 aspartic acid (Asp) residue. All assays were performed in 384-well plates in 12 µL reaction volume consisting of enzyme, substrate and indicated concentration of inhibitor or DMSO in assay buffer (50 mM HEPES [pH 7.0], 25 mM MgSO4, 0.5 mM EGTA, 5 mM Glutathione (GSH), 0.01% Triton X-100 containing 0.1% Bovine Gamma Globulin (BGG)). All inhibitors were serially diluted in 100% DMSO prior to dilution in assay buffer and transfer to assay plate. DMSO was diluted into assay buffer similarly for blank wells (no enzyme or compound) and final DMSO concentration was 1%. The concentration of caspase-6 used in enzymatic reactions typically varied between 1–10 nM depending on substrate used. Unless otherwise indicated, substrate concentration was within 3-fold of the determined Kmapparent (5 µM (Ac-VEID)2R110 [Kmapp = 8 µM]; 5 µM (Ac-DEVD)2R110 [Kmapp = 8 µM]; 25 µM (Ac-IETD)2R110 [Kmapp = 70 µM]; 25 µM (Ac-WEHD)2R110 [Kmapp = 70 µM]; 10µM Ac-VEID-AMC [Kmapp = 16µM]; 5 µM Ac-VEID-R110 [Kmapp = 8 µM]). The concentration of substrate utilized in selectivity assays for each caspase isoform was also held as close to Kmapparent as reasonably achievable (Table S1). Caspases-3 and -7 were expressed and purified at Genentech as the catalytic domain consisting of large p20 and small p10 subunits without prodomain. For all caspase enzymatic assays, the reaction plate was incubated at room temperature for 40 minutes and then read on Envision (Perkin Elmer) fluorescent plate reader at excitation/emission wavelengths of 485/535 nm (R110) or 350/450 nm (AMC).
The endpoint fluorescent emission (RFU) in each well was plotted as a function of inhibitor concentration and the 50% inhibition (IC50) values were determined using a nonlinear least squares fit of the data to a four parameter equation using Prism 5.0 software (GraphPad Software, San Diego, CA). […]

caspase-6 = molecular target: T2, caspase-6 (Homo sapiens, UniProt P55212); test: Caspase-6 enzymatic assay with fluorogenic tetrapeptide substrates; format: biochemical
T2 construct: Residues 24-179 and 194-293 from caspase-6 cDNA (Origene) were cloned into pET-24b and pET-23b vectors; 6x histidine tag (C); made in house; host or cells: E. coli BL21 (DE3) pLysS
T2 sequence (P55212 24-179): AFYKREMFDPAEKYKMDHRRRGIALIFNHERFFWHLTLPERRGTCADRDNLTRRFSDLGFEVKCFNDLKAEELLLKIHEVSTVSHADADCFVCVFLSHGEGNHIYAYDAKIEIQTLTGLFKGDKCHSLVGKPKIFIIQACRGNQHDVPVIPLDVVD
T2 sequence (P55212 194-293): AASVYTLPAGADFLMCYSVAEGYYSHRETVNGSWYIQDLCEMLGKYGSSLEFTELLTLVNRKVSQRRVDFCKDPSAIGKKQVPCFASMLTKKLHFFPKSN
Method: as §1, with “(AMC). […]” for “(AMC).”
The endpoint fluorescent emission (RFU) in each well was plotted as a function of inhibitor concentration and the 50% inhibition (IC50) values were determined using a nonlinear least squares fit of the data to a four parameter equation using Prism 5.0 software (GraphPad Software, San Diego, CA). […] Ki values for Compound 3 were calculated using this equation: Ki = IC50/(Km/[S] +1). Concentration-response curves for each inhibitor were normalized to zero and 100% based on no enzyme or DMSO control, respectively. For steady-state kinetic analysis, initial reaction velocity (RFU/minute) was plotted against substrate concentration at each inhibitor concentration and the data was fit to a hyperbolic Michaelis-Menten model using Prism 5.0 software. Km (µM) and Vmax (RFU/minute) were calculated by using this equation: v = Vmax • [S]/Km+[S] where v = initial reaction velocity at indicated substrate concentration (S). Vmax values were normalized to zero and 100% based on no enzyme or DMSO control, respectively.
Expression and purification of caspase-6 for enzymatic assays: Human caspase-6 was expressed as the mature enzyme using a split construct. Residues 24-179 and 194-293 from caspase-6 cDNA (Origene) were cloned into pET-24b and pET-23b vectors (Novagen) respectively; the small subunit contained a C-terminal 6x histidine tag. Vectors were cotransfected into the E.coli strain BL21 (DE3) pLysS (Stratagene). Cells were grown from a single colony in 6L of 2xYT supplemented with ampicillin and kanamycin at 37 °C to an OD of ~ 0.5 and were subsequently cooled to 16 °C before overnight induction with 0.2 mM IPTG. Cells were harvested by centrifugation, resuspended in 100 mM NaCl, 100 mM Tris, pH 8.0, and lysed.

(Ac-VEID)2R110 = system: T3, (Ac-VEID)2R110; test: SPR; as a2, but substrates (10 µM) mixed with compound 3 (1 µM) and injected together over the captured caspase-6 surfaces; apparent
T3 sequence: VEID

Row | Kmapp of substrate (caspase-6; caspase-6) | Molecule | apparent KD with compound 3 (dissociation of both compound and substrate) ((Ac-VEID)2R110) | further results
1 | 8 µM | (VEID)2R110: Rhodamine110 dye conjugated to two valine-glutamate-isoleucine-aspartate tetrapeptides; fluorogenic substrate (Ac-VEID-R110; also: two VEID chains on one R110 dye) [reference compound] |  | Kmapp of substrate (caspase-3): 8 µM; Kcat of substrate (caspase-6; caspase-6, kcat = Vmax/[E]): 0.11 s⁻¹
2 |  | apo-caspase-6 with C-terminal avi-tag, biotinylated | an apparent KD of ∼200 nM | 
3 | 16 µM | Ac-VEID-AMC: monovalent VEID substrate in which R110 is replaced by amino-methyl coumarin (Ac-VEID-{AMC}; SMILES CC[C@H](C)[C@H](NC(=O)[C@H](CCC(=O)O)NC(=O)[C@@H](NC(C)=O)C(C)C)C(=O)N[C@@H](CC(=O)O)C(=O)Nc1ccc2c(C)cc(=O)oc2c1) [reference compound] |  | 
4 |  | COc1ccc(-c2cc(C(=O)NC(Cc3ccccc3)C(=O)O)c(C)o2)cc1OC (centres unmarked) [Compound 2] |  | binding efficiency index (BEI; pIC50/molecular weight) (caspase-6; caspase-6, (VEID)2R110): 11.5; IC50 (caspase-6; caspase-6 cleavage of (VEID)2R110 substrate, read-out: IC50): 20 µM
5 |  | mature C163A-caspase-6 with C-terminal avi-tag | an apparent KD of ∼200 nM | 
